Measurements as given in article PMC10541619 (bioRxiv, 2023).

Molecular target: the molecule itself
Experiment: mass photometry

B1: RADX-N (RADX 43-560, C-terminal truncation construct) (domain or fragment, human, UniProt Q6NSI4 43-560, looked up)
chain: RSWIQKVLEQIMDSPRQCVTPSEVVPVTVLAVQRYLLEDEPRDTVPKPPLYCYDVTISDGVYQEKCYLDPSLNSLVYQNILKVGIQMRISRVSCLYNEKRIGQGILCIDNVHCGETSDSISLETPFRNRAHQEKPERPLRGGKSHYLALWNNEDPYGDIWLTDKQPEEHNFSDTKIISLSHLEMTWTNRRNFPALLVRILHKSKLRYYGKPDKKMIEPYQTFLEVADSSGTVSVIMWNALCPEWYKSLRVGLVLLLQDYSVKKSYPFRIQPVPVDPQIKLISTMEICLNLRDPPTNIIIIPEKQVKPEWRLPKLNHRFTTRSELDDMPENCICDVIGLLVFVGRVQRSKKKENREDFWSYRWIHIADGTSEQPFIVELFSTSQPEIFENIYPMAYFVCTQLKVVRNDNQVPKLLYLTTTNESGVFITGHRGQPYTYDAKVKNFIQWIRTKSDSGEQKNMVIGGYYPYPPVPETFSKYSSSIKVESLLTAISEVRKEIEDLQYREQKRIAIQGIITAIK
For B1, the “stoichiometry N” value was 2.
